Data taken from PMC4156530 (Journal of neurochemistry, 2014).
Substitutions are numbered along the chain they refer to. Names may count otherwise.

What was measured:
cross-linking = biological target: the molecule itself; test: cross-linking
AUC = biological target: the molecule itself; test: AUC

B1: human DJ-1 C106S, recombinant, tag-cleaved (natural protein)
chain: GSHMASKRALVILAKGAEEMETVIPVDVMRRAGIKVTVAGLAGKDPVQCSRDVVICPDASLEDAKKEGPYDVVVLPGGNLGAQNLSESAAVKEILKEQENRKGLIAAISAGPTALLAHEIGFGSKVTTHPLAKDKMMNGGHYTYSENRVEKDGLILTSRGPGTSFEFALAIVEALNGKEVAAQVKAPLVLKD
binding result (cross-linking): binds

B2: human DJ-1 E18D, recombinant, tag-cleaved (natural protein)
chain: B1 chain with E21D, S109C
modifications: uniformly 15N-labelled in the NMR experiment; fully reduced
stoichiometry N (AUC): 2

B3: human DJ-1 E18Q, recombinant, tag-cleaved (natural protein)
chain: B1 chain with E21Q, S109C
modifications: unlabelled preparation fully reduced; the 15N-labelled preparation of the NMR experiment 43% oxidised (Cys106-SO2-)
stoichiometry N (AUC): 2
